Measured values as given in the nanobody polyreactivity screen of Harvey et al. (2022).

Experiment: yeast display, Sf9 membrane polyspecificity reagent, FACS + sequencing; frameworks hold sequencing errors
How it was run: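 Nanobodies came from a synthetic yeast display library in Saccharomyces cerevisiae BJ5465, induced with galactose for 36–48 hours and stained for 1 hour at 4 °C with 10% biotinylated, detergent-solubilized Sf9 membrane reagent. Cells were enriched on streptavidin microbeads and then FACS-sorted, with low and high (top ~1%) gates set on anti-HA fluorescence for expression and streptavidin fluorescence for reagent binding. Each polyreactivity label reflects the gate a clone came from. Genes were amplified by colony PCR, sequenced by MiSeq 2 × 250 and filtered by CDR length.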
In the case of “QVQLVESGGGLVQSGGSLRLSCAASGNTFHSNAMGWYRQAPGKERELVAAITPSDGDTYYADSVKGRFTISRDNAKNTVYLQMNSLKPEDTAVYYCNARKQVYKIYYSDYRRYDYWGQGTQVTVSS”, the “polyreactivity (PSR sort gate)” value is reported as “low polyreactivity”.
For “QVQLVESGGGLVQSGGSLRLSCAASGRIFVYYAMGWYIQAPGKEMELVAAIDGSDGTTYYADSVKGRFTISRDNAKNTVYLQMNSLKPEDTSVYYCAKDNSLPDYDYWGQGTQVTVSS”, the “polyreactivity (PSR sort gate)” value was “low polyreactivity”.
In the case of “QVQLVESGGGLVQSGGSLRLSCAASGRTFRYYVMGWYRQAPGKERELVADISRGGGRTRYADSVKGRFTISRDNAKNTVYLQMNSLKRDDTAVYYCGARSYSGQFGYWGQGTQVTVSS”, the “polyreactivity (PSR sort gate)” value is reported as “high polyreactivity”.
In the case of “QVQLVESGGGLVQSGGSLRLSCAASGSIFGYYAMGWYRPAPGKERELVAGITNSGDTNYADSVKGRFTISRDNAKNTVYLQMNSLKPEDTAVYYCAAESWAALYGMDYWGQGTQVTVSS”, the “polyreactivity (PSR sort gate)” value is reported as “low polyreactivity”.
In the case of “QVQLVESGGGLVQSGGSLRLSCAASGSIFTGYAMGWYRQAPGKERELVAAITGRGTRTYYADSLKGRFTISRDNANNTVSLQMNSLKPEDTAVYYCAAPVGASSYRDYYWGQGTQVNVSS”, the “polyreactivity (PSR sort gate)” value is reported as “high polyreactivity”.
With “QVQLVESGGGLVQSGGSLRLSCAASGSIFTWYTMGWYRQAPGKERELVAAISWSGGRTYYADSVKGRFTISRDNAKNTVYLQMNSLKPEDTAVYYCAASAYGRPPFDYWGQGTQVTVSS” the “polyreactivity (PSR sort gate)” value was “high polyreactivity”.
For “QVQLVESGGGLVQSGGSLRLSCAASGSIYAYYAMGWYRQAPGKERELVAAIRFNSGRTYYADSVKGRFTISRDNAKNTVYLQMKSLKPEDTAVYYCAARDGYVYSHRYDYWGQGTQVTVSS”, the “polyreactivity (PSR sort gate)” value was “high polyreactivity”.
For “QVQLVESGGGLVQSGGSLRLSCAASGSTFSINPMGWYRQAPGKERELFAAITWRGVRTYYADSVKGRFTISRDNAKNTVYFQMNSLKPEDTAVYYCAADVVVAGHPGFDYWGQGTQVTVSS”, the “polyreactivity (PSR sort gate)” value was “high polyreactivity”.
In the case of “QVQLVESGGGLVQSGGSLRLSCAASGSTSGTNAMGWYRQAPGKERELVAGISYRGGSTYYADSVKGRFTISRDNAKNTVYLHMNSLKPEDTEVYYCAASRNISYWGQGTQVTVSS”, the “polyreactivity (PSR sort gate)” value is reported as “high polyreactivity”.
For “QVQLVESGGGLVQSGGSLRLSCAGSGSTFHYNAMGWYRQAPGKEREFVAAISRTGTSTYYADSVKGRFTISRDNAKNTVYLQMNSLKPEDTAVYYFAAKSLRSGMGYWGQGTQVTVSS”, the “polyreactivity (PSR sort gate)” value was “high polyreactivity”.
For “QVQLVESGGGLVQTGGSLRLSCAASGRIFKHYAMGWYTHAPGKERELVAAITNGGRTNYSDSVKGRFTISRDNAKNTVYLQMNSLKPEDTAVSYCARDRKIAYLSEGFDYWGQGTQVSVSS”, the “polyreactivity (PSR sort gate)” value was “low polyreactivity”.
With “QVQLVESGGGLVQTGGSLRLSCAASGRIFRYYDMGWYRQAPGKEREFVAAITRSGAITYYADSVKGRFTISRDNAKNTVYLQMNSLKPEDTAVYYCFAVRHYALYAGRPYDYWGQGTQVTVSS” the “polyreactivity (PSR sort gate)” value was “low polyreactivity”.
In the case of “QVQLVESGGGLVQTGGTLRLSCAASGRSFNRNARAWYRLAPGKERELVAAISSRVGRTYYADSVKGRFTISRDNAKNSVYLKMNSLKQEETAVYYCNAVYSQSCYFYRFDYWGQGTQVNVSS”, the “polyreactivity (PSR sort gate)” value is reported as “high polyreactivity”.
For “QVQLVESGGGLVQVGGSLRLSCAASGFIFTHYAMGWYRQAPGKERELVAAISVDGGDTYYADSVKGRFTISRDNAKNTVYLQMNSLKPEDTAVYYYWGQGTQVTVSS”, the “polyreactivity (PSR sort gate)” value was “low polyreactivity”.
With “QVQLVESGGGLVQVGGSLRLSCAASGSNFPANAMGWYRQAPGKEWEFVAAINWSTGTTYYADSVKGRFTISRDNAKNTVYLQMNSLKPEDTAVYYCNASDQAKYDYWGQGTQVTVSS” the “polyreactivity (PSR sort gate)” value was “low polyreactivity”.
With “QVQLVESGGGLVRAGGSLRLSWAASGFTFTSYAMGWYRQAPGKERELVAAITVTGGRTYYADSVKGRFTISRDNAKNTVYLQMNSLKPEDTAVYYCATVFSLSSPYWKHYYWGQGTQVTVSS” the “polyreactivity (PSR sort gate)” value was “high polyreactivity”.
For “QVQLVESGGGLYQAGGSLRLSCAASGLIFTTNAMGWYRQAPGKEREFVAAISPSGGSTYYADSVKGRFTISRDNAKNTVYLQMNSLKPEDTAVYYCAARYSPVWHKYYYWGQGTQVTVSS”, the “polyreactivity (PSR sort gate)” value was “high polyreactivity”.
With “QVQLVESGGGSDQAGGSLRLSCAASGSTFQYNVMGWYRQAPRKERELVAAIRQSGSTTYYADSVKGRFTISRDNAKNTVYLQMNSLKPEDTAVYYCAKRYHNWANSRMDYWGQGTQVTVSS” the “polyreactivity (PSR sort gate)” value was “low polyreactivity”.
For “QVQLVESGGGSLRLSCAASGLTFGGYTMGWIRQAPGKERELVAAISSSDSTNYADSVKGRFTISRDNAKNTVYVQMNSLKPEDTALYSCSADSGQWSRYSSFGDEGDSWGQGTQVTVSS”, the “polyreactivity (PSR sort gate)” value was “low polyreactivity”.
For “QVQLVESGGGSVQAGGSLRLSCAASGFTFDKNTMGWYRQAPGKERELVAAISSSGSSTYYADSVKGRFTISRDNAKNTVYLQMNSLKPEDTAVYYCAADYWGWDDYSEYYYWGQGTQVTVSS”, the “polyreactivity (PSR sort gate)” value was “high polyreactivity”.
For “QVQLVESGGGSVQAGGSLRLSCAASGSIFRANAMGWYRQAPGKERELVAAITANGGSTYYADSVKGRFTISRDNAKNTVYLQMNSLKPEDTAVYYCNNARVRGARFDYWGQGTQVTVSS”, the “polyreactivity (PSR sort gate)” value was “high polyreactivity”.
In the case of “QVQLVESGGGSVQAGGSLRLSCAASGSTFGGNVMGWYRQAPGKERELVAAISGSGGSTYYADSVKGRFTISRDTAKNTVYFQMNSLKPVDTSVYYCNVESSQSSSGFDYWGQGTQVTVSS”, the “polyreactivity (PSR sort gate)” value is reported as “low polyreactivity”.
With “QVQLVESGGGSVQAGGSLRLSCAASGSTFVANTMGWYRQAPGKERELVASITSGDSTNYADSVKGRFTISRDNAKNTVYLQMNSLKPEDTAVYYCAAESVWYYVGGQLIYYYWGQGTQVTVSS” the “polyreactivity (PSR sort gate)” value was “low polyreactivity”.
In the case of “QVQLVESGGGVFQAGGTLSLSCAASGITFYPNDMGWYRQATGKETELVAAITTNDGDTYYADSVKGRFTISRDNAKNTVYLQMNSLKPEYTAVYYCAADSGSTSEYEYWGQGTQVTVSS”, the “polyreactivity (PSR sort gate)” value is reported as “low polyreactivity”.
In the case of “QVQLVESGGGVLQAGGSLRLSCAASGRTFCFYAMGWSRQAPGKERELVASITWRGGRTYYADSVKGRFTISRDNAKNTVYLQMNSLKPEDTAVYYCAAVTFSYDGYDYWGQGTQVTVSS”, the “polyreactivity (PSR sort gate)” value is reported as “low polyreactivity”.
With “QVQLVESGGGVVQAGGILRFSCAASGRTFAPDAMGWYRQAPGKERELDAAITNGGSTTYADSVKGRFTISRDNAKNTVYLHMNSLNPEDTAVYYCAADIVSSTDYPFDYWGQGTQVNVSS” the “polyreactivity (PSR sort gate)” value was “low polyreactivity”.
In the case of “QVQLVESGGGVVQAGGRLRLSCAASGGIYRYYAMGWYRQAPGKERELVAVITKSGGDTYYADSVKGRFTISRDNAKNTVYLQMNSLKPEDTAVYYCAAVYGYYTYWIAGFTWAGDYWGQGTQVTVSS”, the “polyreactivity (PSR sort gate)” value is reported as “low polyreactivity”.
For “QVQLVESGGGVVQAGGSIRLSCAASGRIFTSNAMGWNRQAPGKETELDAAISGSGGRTYYADSVKGRFTISRDNAKNTVYLQMNSLKPEDTAVYDCNARYYTSGIAYSYYYWGQGTQGTVSS”, the “polyreactivity (PSR sort gate)” value was “high polyreactivity”.
For “QVQLVESGGGVVQAGGSIRLSGAASGRIFGEYAMGWYRPAPAKERELGAAISGGGSTYYADSVKGRFTISRDNAKNTVYLQMNSLKPEDTAVYYCAVYSVYHEYDYGGQGTQVTVSS”, the “polyreactivity (PSR sort gate)” value was “low polyreactivity”.
With “QVQLVESGGGVVQAGGSLRISCAASGSTFVRYAMGWYRQAPGKERELVASISSSGSTYYADSVKGRFTISRDYAKNTVNVELNCLNPEDNAVYYCAKQYGGRYGYWGQGSQVTVSS” the “polyreactivity (PSR sort gate)” value was “low polyreactivity”.
In the case of “QVQLVESGGGVVQAGGSLRLSCAASGFIFTFYAMGWYRQAPGKERELVAAITGRGGRTYYADSVKGRFTISRDNAKNTVYLQMNSLKPEDTAVYYCAARYRYSVTPGYVYWGQGTQVTLSS”, the “polyreactivity (PSR sort gate)” value is reported as “high polyreactivity”.
In the case of “QVQLVESGGGVVQAGGSLRLSCAASGFLFSHNAMGWYRQAPGKERELVASITSAGTTYYADSVKGRFTISRDNAKNTVYLQMNSLKPEDTAVYYCNKGGSSPVDIYITGDGDYWGQGTQVTVSS”, the “polyreactivity (PSR sort gate)” value is reported as “low polyreactivity”.
In the case of “QVQLVESGGGVVQAGGSLRLSCAASGLIFYLYAMGWYRQAPGKERELVAGITSGGGSTYYADSVKGRFTISRDNAQNTVYLQMNSLKPEDTAVDDCAARLVLYITVVYEDDYWGQGTQGTVSS”, the “polyreactivity (PSR sort gate)” value is reported as “low polyreactivity”.
For “QVQLVESGGGVVQAGGSLRLSCAASGLIIPFYARGWYRQAPGKERELVAAISWSAGSTYYADSVKGRFTMSRDNAKTTVYLQMNSLKPEDTAVYYCATDRNPADFYWGQGTQVTVSS”, the “polyreactivity (PSR sort gate)” value was “low polyreactivity”.
With “QVQLVESGGGVVQAGGSLRLSCAASGRIFIYYTMGWYRQAPGKEREFVAAITYSGGSTRYADSVKGRFTISRDNAKNTVYLQMNSLKPEDTAFYYCAAKFSVRRGFDYWGQGTQVTVSS” the “polyreactivity (PSR sort gate)” value was “low polyreactivity”.
For “QVQLVESGGGVVQAGGSLRLSCAASGRIFRYNAMGWYRQAPGKEREVVAGISFSGGSTYYADSVKGRFTISRDNAKNTVYLQMNSLKPEDTAVYYCNAYGRYSYPTFDYWGQGTQVTVSS”, the “polyreactivity (PSR sort gate)” value was “high polyreactivity”.
With “QVQLVESGGGVVQAGGSLRLSCAASGRIFVGYDMGWYRQAPGKEWELVAAINRSGSSTYYADSVKGRFTISRDNAKNTVYLQMNSLKPEDTAVYYCNDRSGNRYGPRYDYWGQGTQVTVSS” the “polyreactivity (PSR sort gate)” value was “high polyreactivity”.
For “QVQLVESGGGVVQAGGSLRLSCAASGRTFNYYAMGWYRQAPGKERELVAAISRTATTYYADSVKGRFTISRDNAKNTVYLQMNSLKPEDTAVYYCAARSYSSSFSYRHYYWGQGTQVTVSS”, the “polyreactivity (PSR sort gate)” value was “high polyreactivity”.
For “QVQLVESGGGVVQAGGSLRLSCAASGRTFQFNAMGWYRQAPGKERELVATIDDPSGGTYYADSVKGRFTISRDNAKNTVYLQMNSLKPEDTAVYYCAADRWDSRYETYRYDYWGQGTQVTVSS”, the “polyreactivity (PSR sort gate)” value was “low polyreactivity”.
For “QVQLVESGGGVVQAGGSLRLSCAASGRTSGSYAMGWYRQAPGNERELVAVITTSDGSTYYADSVKGRFTISRDNAKNTVYLQMNSLKPEDTAVYYCNVDYPNLWYDSYYYWGQGTQVTVSS”, the “polyreactivity (PSR sort gate)” value was “low polyreactivity”.
With “QVQLVESGGGVVQAGGSLRLSCAASGSFFYVYAMGWYRQAPGKERELVAAITATYYADSVKGRFTISRDNAKNTVYLQMNSLKPEDTAVYYCAAAPWTYWEDYDFWGQGTQVTVSS” the “polyreactivity (PSR sort gate)” value was “low polyreactivity”.
In the case of “QVQLVESGGGVVQAGGSLRLSCAASGSIFKSYAMGWYRQAPGKERELVAAITWSGGSTHYADSVKGRFTISRDNAKNTVYLQMNSLKPEDTAVYYCAADGYTGQAELDSWGQGTQVTVSS”, the “polyreactivity (PSR sort gate)” value is reported as “low polyreactivity”.
In the case of “QVQLVESGGGVVQAGGSLRLSCAASGSIFLRYAMGWYREAPGKERELVAAITSSGGSTYYADSVKGRFTISRDNAKNTVYLQMNSLKPQDNAVYYCNARAYTRYSRLDYWGQGTQVSVSS”, the “polyreactivity (PSR sort gate)” value is reported as “high polyreactivity”.
